Laboratory results reported in publication PMC9276969.

Molecular target: V5-tagged L. vannamei STAT (Litopenaeus vannamei)
Test: native gel or EMSA; S2 cells co-transfected with pAc5.1-STAT and pAc5.1-PTPN6 or pAc5.1-GFP (control); lysed in Pierce IP Lysis buffer at 48 h; 10% native PAGE, Western blot with antibody against shrimp STAT; dimer and monomer bands

“V5-tagged L. vannamei STAT (natural protein)” gave a stoichiometry N of 2.
